In patent US20100260765A1 (AstraZeneca / MedImmune, published 2010):

Assays:
[1] = molecular target: T1, human KDR (VEGFR2) on cells (human, UniProt P35968 20-1356); assay: cell-based or functional assay
[2] = molecular target: T1, human KDR (VEGFR2) on cells; assay: cell-based or functional assay; remark: listed apart in the source
[3] = molecular target: T1, human KDR (VEGFR2) on cells; assay: cell-based or functional assay; remark: listed apart in the source
[4] = molecular target: T1, human KDR (VEGFR2) on cells; assay: FACS on HUVEC, hybridoma supernatant 1:50
Experimental: HUVECs were seeded at 15,000 cells/well and incubated with 100 μL of sample supernatant (at 1:50 dilution) for one hour at 4° C. The positive control was goat anti-KDR antibody (R&D Systems, Inc.), and negative controls included irrelevant hybridoma supernatants at the same dilution. The cells were then washed and incubated with Cy5-conjugated goat anti-human antibody at 5 μg/mL and 7-Amino-Actinomycin D (7AAD) at 5 μg/mL for 15 minutes at 4° C. Bound KDR was detected using FACS analysis.

[5] = molecular target: T2, soluble KDR (VEGF Receptor 2 D1-7, Cat. #676490, Calbiochem) (human, UniProt P35968 20-764); assay: ELISA, plate-coated soluble KDR 250 ng/mL, hybridoma supernatant 1:5
T2 construct: extracellular domain; Bought reagent; also called soluble human KDR; immobilized soluble KDR
Experimental: To screen by binding to immobilized soluble KDR, plates were coated with KDR (Calbiochem) at 250 ng/mL overnight at 4° C. After blocking and washing the coated plates, the candidate hybridoma supernatants (at 1:5 dilution) were transferred to the plates and incubated for one hour at room temperature. The plates were then washed and incubated with secondary antibody (at 1:4000 dilution) for one hour at room temperature.

b-KDRIg4-7-myc-his = molecular target: T3, b-KDRIg4-7-myc-his (UniProt P35968 328-764, prefix 'b-' not explained; captured on neutravidin-coated plates (presumably biotinylated, site not stated)); assay: ELISA, b-KDRIg4-7-myc-his 1 ug/mL on neutravidin, hybridoma supernatant 1:5
T3 construct: domain: Ig4-7; The text calls it 'a KDR antibody containing the Ig4-7 domain'; it is read as the KDR fragment; Purified on a nickel column; also called Ig4-7 domain of KDR; soluble KDR Ig4-7; not shown: myc-his tag of the pSecTag vector
Experimental: To screen by binding to the Ig4-7 domain of KDR, plates were first coated with neutravadin (Pierce) at 4 μg/mL and incubated overnight at 4° C. The plates were then blocked and subsequently incubated with b-KDRIg4-7-myc-his at 1 μg/mL for one hour at room temperature. Candidate hybridoma supernatants (at 1:5 dilution) were transferred to the plates and incubated for one hour at room temperature. The plates were then washed and incubated with goat anti-human IgG Fc POD (at 1:4000 dilution) for one hour at room temperature.

[6] = molecular target: T4, mouse KDR (Flk-1)/Fc (Cat. #443-KD/CF, R&D Systems) (mouse, UniProt P35918 20-762); assay: ELISA, plate-coated Flk-1/Fc 500 ng/mL, hybridoma supernatant 1:5
T4 construct: Bought reagent; also called mouse VEGFR2; KDR mouse ortholog; Fc part of the bought chimera not given
Experimental: The cross-reactivity of antibodies in the hybridoma supernatant was tested against KDR mouse ortholog (mouse VEGFR2, or Flk-1) and human VEGFR1 (Flt-1). Cross-reactivity was measured using an ELISA based assay.
After washing and blocking the plates, the antibody-containing supernatants were added (at 1:5 dilution) into the coated wells and incubated for one hour at room temperature. The plates were then incubated with mouse anti-human IgG 2, 3 and 4 and subsequently with goat anti-mouse IgG Fc POD, to detect and measure bound antibodies.

T1 sequence (P35968 20-1356): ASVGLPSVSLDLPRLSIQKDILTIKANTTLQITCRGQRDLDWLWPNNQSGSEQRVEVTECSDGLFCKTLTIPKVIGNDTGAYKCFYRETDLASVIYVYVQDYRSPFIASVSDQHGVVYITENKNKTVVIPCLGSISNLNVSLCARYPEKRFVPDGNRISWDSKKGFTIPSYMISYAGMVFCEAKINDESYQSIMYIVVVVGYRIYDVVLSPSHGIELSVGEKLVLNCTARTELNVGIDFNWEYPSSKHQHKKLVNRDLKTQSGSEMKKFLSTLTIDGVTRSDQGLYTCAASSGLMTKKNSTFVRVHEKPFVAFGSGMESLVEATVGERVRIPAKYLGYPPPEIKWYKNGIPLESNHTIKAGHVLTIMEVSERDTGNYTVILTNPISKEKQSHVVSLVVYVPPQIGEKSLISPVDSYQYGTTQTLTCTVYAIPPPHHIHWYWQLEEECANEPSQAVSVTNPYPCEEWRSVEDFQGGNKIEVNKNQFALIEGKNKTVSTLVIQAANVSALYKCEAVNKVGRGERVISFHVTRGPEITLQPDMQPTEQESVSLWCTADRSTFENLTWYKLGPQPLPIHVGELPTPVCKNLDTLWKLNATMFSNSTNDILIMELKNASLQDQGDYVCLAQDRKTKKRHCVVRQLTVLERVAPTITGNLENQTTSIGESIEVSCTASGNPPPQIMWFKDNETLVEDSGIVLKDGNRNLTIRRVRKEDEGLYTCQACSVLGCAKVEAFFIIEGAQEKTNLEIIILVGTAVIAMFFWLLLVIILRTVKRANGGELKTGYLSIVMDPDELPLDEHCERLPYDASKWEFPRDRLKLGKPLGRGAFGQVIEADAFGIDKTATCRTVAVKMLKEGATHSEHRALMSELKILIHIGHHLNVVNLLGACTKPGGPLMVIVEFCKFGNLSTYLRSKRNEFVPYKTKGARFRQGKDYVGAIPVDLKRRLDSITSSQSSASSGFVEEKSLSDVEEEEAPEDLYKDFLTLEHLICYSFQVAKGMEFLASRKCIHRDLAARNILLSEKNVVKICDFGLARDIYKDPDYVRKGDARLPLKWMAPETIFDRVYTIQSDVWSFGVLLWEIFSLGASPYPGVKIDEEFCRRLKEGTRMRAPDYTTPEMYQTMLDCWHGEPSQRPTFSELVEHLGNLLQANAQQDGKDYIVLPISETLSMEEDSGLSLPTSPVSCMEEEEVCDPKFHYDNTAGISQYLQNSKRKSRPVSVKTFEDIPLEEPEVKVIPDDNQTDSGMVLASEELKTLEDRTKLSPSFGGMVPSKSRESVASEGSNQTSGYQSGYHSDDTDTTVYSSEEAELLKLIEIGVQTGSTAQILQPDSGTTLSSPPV
T3 sequence (P35968 328-764): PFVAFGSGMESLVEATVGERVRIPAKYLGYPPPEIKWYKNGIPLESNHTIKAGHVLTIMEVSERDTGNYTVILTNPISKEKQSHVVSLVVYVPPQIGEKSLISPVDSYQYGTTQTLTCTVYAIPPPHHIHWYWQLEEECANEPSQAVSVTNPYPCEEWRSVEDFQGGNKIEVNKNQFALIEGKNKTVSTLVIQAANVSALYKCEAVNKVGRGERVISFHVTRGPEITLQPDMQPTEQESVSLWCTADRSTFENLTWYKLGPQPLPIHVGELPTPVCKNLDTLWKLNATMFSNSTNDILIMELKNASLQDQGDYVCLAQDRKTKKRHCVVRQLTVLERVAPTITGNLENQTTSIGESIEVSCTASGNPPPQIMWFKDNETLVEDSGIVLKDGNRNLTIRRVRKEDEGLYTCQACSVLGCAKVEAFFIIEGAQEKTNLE
T4 sequence (P35918 20-762): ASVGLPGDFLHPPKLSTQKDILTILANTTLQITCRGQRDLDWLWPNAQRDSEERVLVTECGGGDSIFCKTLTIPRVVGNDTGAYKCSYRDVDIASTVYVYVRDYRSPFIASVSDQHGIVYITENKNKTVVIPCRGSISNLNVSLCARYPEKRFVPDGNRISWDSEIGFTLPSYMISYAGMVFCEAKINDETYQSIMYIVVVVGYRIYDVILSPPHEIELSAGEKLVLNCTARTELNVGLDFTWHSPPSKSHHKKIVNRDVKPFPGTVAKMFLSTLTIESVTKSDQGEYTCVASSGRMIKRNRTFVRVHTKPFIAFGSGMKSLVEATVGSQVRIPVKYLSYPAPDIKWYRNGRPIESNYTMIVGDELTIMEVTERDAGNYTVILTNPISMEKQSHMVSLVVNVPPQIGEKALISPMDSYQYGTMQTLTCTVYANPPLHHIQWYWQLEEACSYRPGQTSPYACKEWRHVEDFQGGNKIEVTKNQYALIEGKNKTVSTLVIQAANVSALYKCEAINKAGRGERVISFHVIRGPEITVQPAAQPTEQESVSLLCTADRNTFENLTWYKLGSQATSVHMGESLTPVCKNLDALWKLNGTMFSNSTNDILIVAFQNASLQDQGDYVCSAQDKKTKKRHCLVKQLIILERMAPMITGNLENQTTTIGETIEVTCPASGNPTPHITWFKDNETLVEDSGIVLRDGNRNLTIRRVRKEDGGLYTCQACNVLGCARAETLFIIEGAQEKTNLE
T2 sequence (P35968 20-764): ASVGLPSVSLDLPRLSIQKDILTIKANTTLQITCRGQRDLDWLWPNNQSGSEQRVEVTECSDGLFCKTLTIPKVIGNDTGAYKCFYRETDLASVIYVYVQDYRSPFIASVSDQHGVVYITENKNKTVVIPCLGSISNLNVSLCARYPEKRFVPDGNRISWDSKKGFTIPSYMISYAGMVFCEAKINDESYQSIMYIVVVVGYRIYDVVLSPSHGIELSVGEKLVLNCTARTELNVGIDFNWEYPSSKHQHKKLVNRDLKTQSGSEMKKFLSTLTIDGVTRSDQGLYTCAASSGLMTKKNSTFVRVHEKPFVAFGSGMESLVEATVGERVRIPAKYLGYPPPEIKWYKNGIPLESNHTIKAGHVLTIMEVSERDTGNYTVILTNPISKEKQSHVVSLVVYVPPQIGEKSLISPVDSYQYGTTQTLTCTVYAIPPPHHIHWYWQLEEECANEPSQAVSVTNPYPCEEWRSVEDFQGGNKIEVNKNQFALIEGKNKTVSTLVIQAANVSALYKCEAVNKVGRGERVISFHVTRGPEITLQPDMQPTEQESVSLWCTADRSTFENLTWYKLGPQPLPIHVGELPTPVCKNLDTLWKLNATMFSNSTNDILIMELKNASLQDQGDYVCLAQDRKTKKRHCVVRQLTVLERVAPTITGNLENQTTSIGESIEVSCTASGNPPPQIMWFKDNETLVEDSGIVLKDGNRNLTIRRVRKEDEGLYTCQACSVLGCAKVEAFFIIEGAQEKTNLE

Binder | % Inhibition of VEGF165-mediated pTyr Activity, Average [1] [%] | % Inhibition of VEGF165-mediated pTyr Activity, n = 1 [1] [%] | % Inhibition of VEGF165-mediated pTyr Activity, n = 2 [1] [%] | % Inhibition of VEGF165-mediated pTyr Activity, n = 3 [1] [%] | % Inhibition of VEGF-E-mediated pTyr Activity [2] [%] | HUVEC survival (n = 1) 1:10 dilution of supernatant (RLU) [3] [RLU] | HUVEC survival (n = 2) 1:20 dilution of supernatant (RLU) [3] [RLU] | FACS Geometric Mean [4] | KDR OD(450 nm) [5] [OD450] | b-KDRIg4-7 OD(450 nm) (b-KDRIg4-7-myc-his) [OD450] | OD (450 nm) [6] [OD450]
anti-KDR monoclonal antibody 27A3 (antibody, V domains shown, Fully human mAb from XenoMouse (IgG2 or IgG4 strain); hybridoma supernatant) VH: QLQLQESGPGLVKPSETLSLTCTVSGGSISSRSDYWGWIRQPPGKGLEWIGTIYYSGDTYYNPSLKSRVTISVDTSKNQFSLKLSSVTAADTAVYYCARQQLVLYYFDYWGQGTLVTVSS VL: EIVLTQSPGTLSLSPGERATLSCRASQSVSSSYLAWYQQKPGQAPRLLIYATSNRATGIPDRFSGSGSGTDFTLTISRLEPEDFAVYYCQQHGSSPPLTFGGGTKVEIK | 62 | 60 | 68 | 59 | 60 | 17300 | 4560 | 25 | 3.75 | 1.82 | 
anti-KDR monoclonal antibody 30H10 (antibody, V domains shown, Fully human mAb from XenoMouse (IgG2 or IgG4 strain); hybridoma supernatant) VH: EVQLLESGGGLVQPGGSLRLSCAASGFTFSNYAMSWVRQAPGKGLEWVSAISGSGGITYYADSVKGRFTISRDNSKNTLFLQMNSLRAEDTAVYYCAKASGDNWGQGTLVSVSS VL: not shown | 76 | 92 | 77 | 59 | 20 | 39500 | 21100 | 31 | 0.943 | 0.047 | 
anti-KDR monoclonal antibody 32C11 (antibody, V domains shown, Fully human mAb from XenoMouse (IgG2 or IgG4 strain); hybridoma supernatant) VH: EVQLLESGGTLVQPGGSLRLSCAASGFTFSNYAMSWVRQAPGKGLEWVSAISGRAGSTYYADSVKGRFTISRDNSKNTLFLQMNSLRAEDTAVYYCAKASGDDWGQGTLVTVSS VL: not shown | 72 | 84 | 75 | 57 | 17 | 44800 | 8570 | 26 | 0.924 |  | 0.083
anti-KDR monoclonal antibody 21H6 (antibody, V domains shown, Fully human mAb from XenoMouse; hybridoma supernatant) VH: QVQLVESGGGLVKPGGSLRLSCAASGFTFSDYYMSWIRQAPGKGLEWVSYISNSGITIYYADSVKGRFTISRDNAKNSLYLQMNSLRAGDTAVYYCAREEWYSSRWYRNFDYWGQGTLVTVSS VL: DIQMTQFSSSLSASVGDRVTITCRASQSISRYLNWYQQKPGKAPKLLIYAASSLQSGVPSRFNGSGSGTDFTLTISSLQPEDFATYYCQQSYSAPLTFGGGTKVEIK | 72 | 85 | 65 | 68 | 70 | 10200 | 247 | 18 | 0.62 | 0.935 | 
anti-KDR monoclonal antibody 21A1 (antibody, V domains shown, Fully human mAb from XenoMouse (IgG2 or IgG4 strain); hybridoma supernatant) VH: QVQLVESGGGLVKPGGSLRLSCAASGFTFSDYYMSWIRQAPGKGLEWVSYISNSGITIYYADSVKGRFTISRDNAKNSLYLQMNSLRAGDTAVYYCAREEWYSSRWYRNFDYWGQGTLVTVSS VL: DIQMTQFSSSLSASVGDRVTITCRASQSISRYLNWYQQKPGKAPKLLIYAASSLQSGVPSRFNGSGSGTDFTLTISSLQPEDFATYYCQQSYSAPLTFGGGTKVEIK | 72 | 71 | 77 | 68 | 67 | 8870 | 2670 | 14 | 0.967 | 1.27 | 
anti-KDR monoclonal antibody 30F6 (antibody, V domains shown, Fully human mAb from XenoMouse (IgG2 or IgG4 strain); hybridoma supernatant) VH: QVQLVESGGGVVQPGRSLRLSCAASGFTFSTYGMHWVRQAPGKGLEWVAVIWYDGSNKYYADSVKGRFTISRDNSKNTLYLQMNSLRAEDTAVYYCACSYWNDDYYYGMDVWGQGTTVTVSS VL: DIQMTQSPSSLSASVGDRVIITCRASQNISSYLIWYQQKPGKAPNLLIHTTSSLQRGVPSRFSGSGSGTDFTLTISSLQPEDFATYYCQQSYSAPLTFGGGTKVEIK | 70 | 98 | 60 | 52 | 56 | 14800 | 1350 | 21 | 0.454 |  | 0.067
anti-KDR monoclonal antibody 24B3 (antibody, V domains shown, Fully human mAb from XenoMouse (IgG2 or IgG4 strain); hybridoma supernatant) VH: EVQLVESGGGLVKPGGSLRLSCAASGFTFSTYSMNWVRQAPGKGLEWVSFISGRSSYIYYADSVKGRFTISRDNAKNSLYLQMNSLRAEDTAVYYCSKDDWFEELWGQGTLVTVSS VL: DIQMTQSPSSLSASVGDRVTITCRASQGIRSDLGWYQQKPGKAPKRLIYATSSLQSGVPSRFSGSGSGTEFTLTISSLQPEDFATYYCLQHNRYPWTFGQGTKVEIK | 51 | 69 | 51 | 33 | 40 | 14100 | 2460 | 26 | 6 | 0.065 | 0.094
anti-KDR monoclonal antibody 32G7 (antibody, V domains shown, Fully human mAb from XenoMouse (IgG2 or IgG4 strain); hybridoma supernatant) VH: EVQLVESGGGLVKPGGSLRLSCAASGFTISSYSMNWVRQAPGKGLEWVSFISSRSNYIYYADSVKGRFTISRDNAKNSLYLQMNSLRAEDTAVYYCSKDDWFEELWGQGTLVTVSS VL: DIQMTQSPSSLSASVGDRVTITCRASQDIRNDLGWYQQKPGKAPKRLIYAASSLQSGVPSRFSGSGSGTEFTLTISSLQPEDFATYYCLQHNSFPWTFGQGTKVEIK | 44 | 73 | 47 | 11 | 57 | 24900 | 11900 | 28 | 1.07 | 0.068 | 0.092
anti-KDR monoclonal antibody 33B1 (antibody, V domains shown, Fully human mAb from XenoMouse (IgG2 or IgG4 strain); hybridoma supernatant) VH: EVQLVESGGGLVKPGGSLRLSCAASGFTFSSYTMNWVRQAPGKGLEWVSFIDSRSSYIYYADSVKGRFTISRDNAKNSLYLQMNSLRAEDTAVYYCSKDDWFEELWGQGTLVTVSS VL: DIQMTQSPSSLSASVGDRVTITCRASQGIRNDLGWYQQKPGKAPKRLIYATSSLQSGVPSRFSGSGSGTEFTLTISSLQPEDFATYYCLHHNSFPWTFGQGTKVEIK | 54 | 76 | 56 | 31 | 54 | 19400 | 12500 | 25 | 1.11 | 0.058 | 0.108
